Results: article PMC3433420, “Comprehensive Binary Interaction Mapping of SH2 Domains via Fluorescence Polarization Reveals Novel Functional Diversification of ErbB Receptors” (PLoS ONE, 2012)
“And” between values parts separate entries of the source, which are not always exact repeats. Identical values can stand only once. Non-standard residues stand in square brackets, D forms with d. No end group written: not given here. pY = N[C@@H](Cc1ccc(OP(=O)(O)O)cc1)C(=O)O; Rhodamine = not defined here

What was measured:
Experiment in all cases: peptide or protein array; SH2/PTB proteins spotted on aldehyde slides, rhodamine peptide titrated in buffer B (20 mM HEPES, 100 mM KCl, 0.1% Tween-20, 5 mM DTT, pH 7.8), 1 h at room temperature; replicate assays
Settings in all cases: both partners purified
SOCS6 SH2 domain = target: T1, SOCS6 SH2 domain (human, UniProt O14544 384-491)
T1 construct: SOCS6, human; source: bacterial expression, purified
T1 sequence (looked up): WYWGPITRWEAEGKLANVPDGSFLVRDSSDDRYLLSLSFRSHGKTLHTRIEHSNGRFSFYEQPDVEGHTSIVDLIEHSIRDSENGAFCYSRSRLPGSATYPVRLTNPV

[1] = target: T2, PIK3R1 tandem SH2 domains (human, UniProt P27986 1-724)
T2 construct: PIK3R1, human; also called PIK3R1-NC; source: bacterial expression, purified

[2] = target: T3, ZAP70 C-terminal SH2 domain (human, UniProt P43403 1-619)
T3 construct: ZAP70, human; source: bacterial expression, purified
T3 sequence (looked up): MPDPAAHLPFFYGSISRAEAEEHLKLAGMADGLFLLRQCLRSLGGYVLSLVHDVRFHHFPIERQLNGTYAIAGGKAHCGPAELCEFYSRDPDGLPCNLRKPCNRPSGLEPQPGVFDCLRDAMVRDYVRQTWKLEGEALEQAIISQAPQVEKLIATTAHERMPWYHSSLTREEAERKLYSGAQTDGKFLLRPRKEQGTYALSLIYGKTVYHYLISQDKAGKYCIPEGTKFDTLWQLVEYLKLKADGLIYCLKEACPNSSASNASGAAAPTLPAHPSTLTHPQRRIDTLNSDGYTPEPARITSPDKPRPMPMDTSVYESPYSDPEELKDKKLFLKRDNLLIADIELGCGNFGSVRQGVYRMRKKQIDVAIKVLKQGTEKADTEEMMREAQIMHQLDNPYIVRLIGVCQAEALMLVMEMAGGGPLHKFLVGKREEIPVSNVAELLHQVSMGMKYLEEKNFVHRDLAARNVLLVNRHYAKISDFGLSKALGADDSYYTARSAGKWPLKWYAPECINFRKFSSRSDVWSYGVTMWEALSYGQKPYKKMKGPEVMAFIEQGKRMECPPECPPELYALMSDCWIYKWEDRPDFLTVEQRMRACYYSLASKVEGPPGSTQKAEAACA

SOCS5 SH2 domain = target: T4, SOCS5 SH2 domain (human, UniProt O75159 381-476)
T4 construct: SOCS5, human; source: bacterial expression, purified
T4 sequence (looked up): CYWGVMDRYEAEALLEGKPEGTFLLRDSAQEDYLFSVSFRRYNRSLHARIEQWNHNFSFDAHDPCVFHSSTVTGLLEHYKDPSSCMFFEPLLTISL

SH2D1B SH2 domain = target: T5, SH2D1B SH2 domain (human, UniProt O14796 5-101)
T5 construct: SH2D1B, human; source: bacterial expression, purified
T5 sequence (looked up): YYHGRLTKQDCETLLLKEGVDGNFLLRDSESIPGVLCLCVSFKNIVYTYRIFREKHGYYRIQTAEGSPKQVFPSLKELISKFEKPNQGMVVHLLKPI

BTK SH2 domain = target: T6, BTK SH2 domain (human, UniProt Q06187 281-377)
T6 construct: BTK, human; source: bacterial expression, purified

FGR SH2 domain = target: T7, FGR SH2 domain (human, UniProt P09769 144-241)
T7 construct: FGR, human; source: bacterial expression, purified

[3] = target: T8, SYK N-terminal SH2 domain (human)
T8 construct: SYK, human; source: bacterial expression, purified

SH2D1A SH2 domain = target: T9, SH2D1A SH2 domain (human, UniProt O60880 6-104)
T9 construct: SH2D1A, human; source: bacterial expression, purified
T9 sequence (looked up): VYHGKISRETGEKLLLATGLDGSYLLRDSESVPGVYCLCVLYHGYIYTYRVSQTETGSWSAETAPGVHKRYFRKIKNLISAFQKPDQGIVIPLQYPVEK

ABL1 SH2 domain = target: T10, ABL1 SH2 domain (human, UniProt P00519 127-217)
T10 construct: ABL1, human; source: bacterial expression, purified
T10 sequence (looked up): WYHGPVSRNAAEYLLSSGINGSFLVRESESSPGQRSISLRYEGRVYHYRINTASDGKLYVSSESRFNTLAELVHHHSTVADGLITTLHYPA

T2 sequence (P27986 whole entry, the tested form may be a part): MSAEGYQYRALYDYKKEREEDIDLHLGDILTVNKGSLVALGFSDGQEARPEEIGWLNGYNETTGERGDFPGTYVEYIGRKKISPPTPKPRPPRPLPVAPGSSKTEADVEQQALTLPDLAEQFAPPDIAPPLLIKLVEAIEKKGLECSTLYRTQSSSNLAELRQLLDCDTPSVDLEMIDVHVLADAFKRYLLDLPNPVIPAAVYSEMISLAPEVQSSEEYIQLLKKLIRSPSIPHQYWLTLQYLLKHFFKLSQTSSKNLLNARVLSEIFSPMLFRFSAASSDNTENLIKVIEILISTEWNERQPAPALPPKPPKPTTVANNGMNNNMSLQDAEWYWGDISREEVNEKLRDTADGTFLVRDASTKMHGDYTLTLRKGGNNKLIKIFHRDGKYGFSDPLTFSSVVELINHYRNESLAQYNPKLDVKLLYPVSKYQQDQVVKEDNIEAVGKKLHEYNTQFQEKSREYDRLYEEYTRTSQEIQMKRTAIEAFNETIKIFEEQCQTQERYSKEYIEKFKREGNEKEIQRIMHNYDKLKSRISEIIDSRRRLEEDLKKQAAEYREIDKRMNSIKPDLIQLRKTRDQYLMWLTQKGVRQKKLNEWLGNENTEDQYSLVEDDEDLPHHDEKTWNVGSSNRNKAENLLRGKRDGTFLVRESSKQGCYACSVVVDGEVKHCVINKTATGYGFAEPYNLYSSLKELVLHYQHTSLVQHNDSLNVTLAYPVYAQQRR
T6 sequence (Q06187 281-377): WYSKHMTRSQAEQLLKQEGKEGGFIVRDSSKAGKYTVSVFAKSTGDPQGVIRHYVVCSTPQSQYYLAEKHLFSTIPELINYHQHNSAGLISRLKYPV

Rhodamine-ETDG[pY]VAPLTCSD (reading uncertain) [ErbB2 pY1127 phosphopeptide, rhodamine-labelled, for protein microarrays]
Kd (SOCS6 SH2 domain): 8930 nM and 5200 nM
Kd [1]: 10.9 nM and 10 nM
Kd [2]: 2200 nM and 3210 nM
Kd (SOCS5 SH2 domain): 698 nM
Kd (SH2D1B SH2 domain): 2280 nM
Kd (BTK SH2 domain): 4710 nM and 5890 nM
Kd (FGR SH2 domain): 5180 nM
Kd [3]: 3210 nM and 2330 nM
Kd (SH2D1A SH2 domain): 1600 nM and 4590 nM
Kd (ABL1 SH2 domain): 529 nM and 301 nM
